Source: patent publication US20230330251A1, “METHODS FOR TREATING CANCERS WITH ANTIBODY DRUG CONJUGATES (ADC) THAT BIND TO 191P4D12 PROTEINS” (AGENSYS, INC., priority 2020, published 2023)

Tests used:
[1] = system: metastatic urothelial cancer patients and non-metastatic urothelial cancer patients; test: Phase 1 study of EV, escalating dose levels 0.5-1.25 mg/kg: safety, DLT, MTD; type: in vivo, human
Experimental: EV will be administered at a dose of 1.25 mg/kg as an intravenous infusion over approximately 30 minutes on Days 1, 8, and 15 of each 28-day cycle. […] A maximum tolerated dose (MTD) was not reached in this study. At the 1 mg/kg dose level, 2 dose- limiting toxicities (DLTs) were observed: Grade 3 proctalgia (later changed to grade 2 by the investigator) thought related to radiation recall and Grade 4 hyperuricemia without clinical sequelae.
Moreover, dose reductions due to AEs were more frequent for the 1.25 mg/kg vs lower dose levels.
In the phase 1 study, rash and similar dermatologic AE's were common among patients treated with EV, and were seen more frequently at the highest dose. Although the exact etiology of dermatologic toxicities associated with EV is unclear at this time, due to the expression of nectin-4 in the skin, rash maybe an on target toxicity. The most common type of dermatological AE reported in ASG-22CE-13-2 was maculo-papular rash, rash, skin exfoliation, and skin pigmentation disorder. Most occurred early on (during cycle 1), and some were associated with pruritus. Mild rash due to EV should be treated using local supportive care as needed. Topical corticosteroids have been used along with antihistamines for pruritus as needed.

[2] = system: patients with previously treated locally advanced or metastatic urothelial carcinoma (la/mUC) with poor prognostic factors; test: EV-301 subgroup analyses of OS, PFS and ORR incl. hard-to-treat subgroups (age ≥65 years, liver metastasis, primary upper tract disease, CPI nonresponse); type: in vivo, human; settings: for ORR, EV vs SC Absolute Difference / Overall response rate (ORR), % / Overall response rate (ORR), n/N: Response-Evaluable Population
Experimental: Using FAS, the analysis for OS, PFS1 and ORR were repeated by ECOG PS (0 vs 1), regions of the world, and liver metastasis respectively.
In addition, subgroup analyses were conducted for selected endpoints to determine whether the treatment effect is consistent.
Subgroup analyses were prespecified for the primary endpoint of OS and secondary endpoints of investigator-assessed progression-free survival (PFS) and overall response rate (ORR) per RECIST v1.1. Kaplan-Meier analyses compared OS and PFS between treatments for selected hard-to-treat subgroups as follows: age ≥65 years, presence of liver metastasis, primary upper tract disease, and checkpoint inhibitor (CPI) nonresponse. ORR and safety were also evaluated within subgroups. The Cox proportional hazards model was used to estimate hazard ratios. The Cochran-Mantel-Haenszel test was used to compare response and disease control rates between groups.

[3] = system: subjects with previously treated locally advanced or metastatic urothelial cancer; settings: in vivo
Excerpt: The Safety Analysis Set (SAF) will be used for the safety analysis. All subjects who are randomized and received study drug will be included in the SAF. The frequency of AEs and the serious AEs will be summarized by MedDRA system organ class and preferred term. In addition, summary statistics will be provided for the following safety parameters: • Laboratory values • Vital sign measurements • ECOG PS
An AE is any untoward medical occurrence in a subject, temporally associated with the use of a medicinal product, whether or not considered related to the medicinal product. An AE can therefore be any unfavorable and unintended sign (including an abnormal laboratory finding), symptom, or disease (new or exacerbated) temporally associated with the use of a medicinal product.
AEs, including abnormal clinical laboratory values, will be graded using the NCI-CTCAE guidelines (Version 4.03).
The safety analysis set (SAF), which consists of all subjects who received any amount of study drug, will be used for safety analyses.
SAF was used to perform all safety analysis. All treated subjects were analyzed according to the treatment they received.
The number and percentage of AEs by severity were also summarized. All AEs were listed.
A study drug-related TEAE is defined as any TEAE with a causal relationship of YES by the investigator. AEs of interest as classified by customized MedDRA queries and/or standard MedDRA queries were also summarized.

## enfortumab vedotin
[1]; 1 mg/kg dose level, Grade 3 proctalgia, Grade 4 hyperuricemia
  dose-limiting toxicities (DLTs) observed: 2
[1]; 1.25 mg/kg
  DLT: No DLT was observed
[1]; 1.25 mg/kg vs lower dose levels
  dose reductions due to AEs: more frequent
[1]; across dose levels
  frequency of all TEAEs, AEs leading to withdrawal, and Grade 3-4 TEAEs: comparable across all dose levels
[1]; by dose level, primarily Grades 1-2
  Incidence of the most frequent drug-related AEs, such as diarrhea and rash: increased with increasing dose levels
[1]; dose levels 0.5, 0.75, 1 and 1.25 mg/kg
  maximum tolerated dose (MTD): not reached
[1]; phase 1 study, more frequent at the highest dose
  rash and similar dermatologic AE's: common
[2]; Age ≥65 yrs
  Median OS: 14.32 mo
  Median PFS: 5.65 mo
  OS, EV vs SC HR: 0.745
  Overall survival (OS) Events, %: (44) %
  Overall survival (OS) Events, n/N: 85/193
  PFS, EV vs SC HR: 0.616
  Progression-free survival (PFS) Events, %: (65) %
  Progression-free survival (PFS) Events, n/N: 126/193
  ORR, EV vs SC Absolute Difference: 20.9%
  Overall response rate (ORR), %: 40.8%
  Overall response rate (ORR), n/N: 75/184
[2]; CPI non-responder
  Median OS: 11.63 mo
  Median PFS: 5.42 mo
  OS, EV vs SC HR: 0.757
  Overall survival (OS) Events, %: (48) %
  Overall survival (OS) Events, n/N: 100/207
  PFS, EV vs SC HR: 0.697
  Progression-free survival (PFS) Events, %: (71) %
  Progression-free survival (PFS) Events, n/N: 146/207
  ORR, EV vs SC Absolute Difference: 22.3%
  Overall response rate (ORR), %: 39.7%
  Overall response rate (ORR), n/N: 79/199
[2]; Presence of Liver metastasis
  Median OS: 9.63 mo
  Median PFS: 4.14 mo
  OS, EV vs SC HR: 0.660
  Overall survival (OS) Events, %: (57) %
  Overall survival (OS) Events, n/N: 53/93
  PFS, EV vs SC HR: 0.597
  Progression-free survival (PFS) Events, %: (76) %
  Progression-free survival (PFS) Events, n/N: 71/93
  ORR, EV vs SC Absolute Difference: 24.7%
  Overall response rate (ORR), %: 35.5%
  Overall response rate (ORR), n/N: 33/93
[2]; Primary upper tract disease
  Median OS: 12.62 mo
  Median PFS: 5.62 mo
  OS, EV vs SC HR: 0.848
  Overall survival (OS) Events, %: (45) %
  Overall survival (OS) Events, n/N: 44/98
  PFS, EV vs SC HR: 0.716
  Progression-free survival (PFS) Events, %: (64) %
  Progression-free survival (PFS) Events, n/N: 63/98
  ORR, EV vs SC Absolute Difference: 24.8%
  Overall response rate (ORR), %: 43.9%
  Overall response rate (ORR), n/N: 43/98
[2]; across all subgroups
  ORR in hard-to-treat subgroups, EV compared to SC: higher
  PFS in hard-to-treat subgroups, EV compared to SC: longer
[2]; liver metastasis, CPI nonresponsive, primary upper tract disease, poor prognostic factors, listed as EV
  OS in hard-to-treat subgroups, EV vs SC: consistently longer
[2]; prespecified key subgroups, intention-to-treat population
  progression-free survival benefit in subgroup analyses: present across multiple subgroups
[3]
  Death, %: (43.9%)
  Drug-Related Serious TEAE, %: (22.6%)
  Drug-Related TEAE Leading to Death, %: (2.4%)
  Drug-Related TEAE Leading to Death, Exclusing Disease Progression, %: (2.4%)
  Drug-Related TEAE Leading to Withdrawal of Treatment, %: (13.5%)
  Drug-Related TEAE with CTCAE Grade >=3, %: (51.4%)
  Drug-Related TEAE, %: (93.9%)
  Serious TEAE, %: (46.6%)
  TEAE Leading to Death, %: (7.1%)
  TEAE Leading to Death, Exclusing Disease Progression, %: (3.7%)
  TEAE Leading to Withdrawal of Treatment, %: (17.2%)
  TEAE Leading to dose interruption, %: (60.8) %
  TEAE Leading to dose reduction, %: (34.1) %
  TEAE with CTCAE Grade >=3, %: (70.9%)
  TEAE, %: (98.0%)
  TEAE: Alopecia, %: (47.0) %
  TEAE: Anemia, %: (19.9) %
  TEAE: Constipation, %: (27.7) %
  TEAE: Decreased appetite, %: (40.9) %
  TEAE: Diarrhea, %: (34.8) %
  TEAE: Dysgeusia, %: (25.0) %
  TEAE: Fatigue, %: (36.1) %
  TEAE: Nausea, %: (30.1) %
  TEAE: Peripheral sensory neuropathy, %: (34.5) %
  TEAE: Pruritis, %: (34.5) %
  TEAE: Pyrexia, %: (22.0) %
  TRAE Leading to dose interruption: Anemia, %: (2.7) %
  TRAE Leading to dose interruption: Asthenia, %: (2.0) %
  TRAE Leading to dose interruption: Diarrhea, %: (2.0) %
  TRAE Leading to dose interruption: Drug eruption, %: (2.4) %
  TRAE Leading to dose interruption: Fatigue, %: (5.4) %
  TRAE Leading to dose interruption: Neuropathy peripheral, %: (3.0) %
  TRAE Leading to dose interruption: Neutropenia, %: (2.0) %
  TRAE Leading to dose interruption: Neutrophil count decreased, %: (5.1) %
  TRAE Leading to dose interruption: Peripheral sensory neuropathy, %: (15.5) %
  TRAE Leading to dose interruption: Rash maculo-papular, %: (4.4) %
  TRAE Leading to dose interruption: Rash, %: (3.4) %
  TRAE Leading to dose reduction: Decreased appetite, %: (3.4) %
  TRAE Leading to dose reduction: Fatigue, %: (2.7) %
  TRAE Leading to dose reduction: Neutropenia, %: (1.7) %
  TRAE Leading to dose reduction: Neutrophil count decreased, %: (2.0) %
  TRAE Leading to dose reduction: Peripheral sensory neuropathy, %: (7.1) %
  TRAE Leading to dose reduction: Rash maculo-papular, %: (4.4) %
  TRAE Leading to dose withdrawal: Peripheral sensory neuropathy, %: (2.4) %
